Reference: patent publication US20060183886A1

Biological target: asialoglycoprotein receptor on Hep G2 cells (human (Hep G2 cells)) (UniProt P07306)
Assay: cell-based or functional assay

Sequence of UniProt P07306 (P07306 whole entry): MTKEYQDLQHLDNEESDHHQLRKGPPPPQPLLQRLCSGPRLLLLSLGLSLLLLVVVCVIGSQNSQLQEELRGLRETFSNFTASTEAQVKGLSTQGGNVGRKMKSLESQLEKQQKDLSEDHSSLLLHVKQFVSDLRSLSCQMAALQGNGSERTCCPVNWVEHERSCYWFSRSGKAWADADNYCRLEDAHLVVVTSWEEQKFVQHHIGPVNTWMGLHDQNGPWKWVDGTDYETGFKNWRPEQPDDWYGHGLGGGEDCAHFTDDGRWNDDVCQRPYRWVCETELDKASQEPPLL

[YEE(ah-GalNAc)3]-SMCC-AET-pU^mpT7
cell association (uptake) by Hep G2 cells, 1 uM conjugate alone, 37 C, two hours (pmol per 10^6 cells): 7.8 | cell association (uptake) by Hep G2 cells, 1 uM conjugate with a 100-fold excess of free 5, 37 C, two hours (pmol per 10^6 cells): 0.42 | uptake by Hep G2 cells, 1 uM conjugate, 37 C, about 24 hours (pmol per 10^6 cells): 26.6
